Paper PMC3506534, “LL-37 Induces Polymerization and Bundling of Actin and Affects Actin Structure” (PLoS ONE, 2012)

Biological target: rabbit skeletal muscle α-actin (rabbit) (UniProt P68135)

Chain of DNase1 (P00639 23-282): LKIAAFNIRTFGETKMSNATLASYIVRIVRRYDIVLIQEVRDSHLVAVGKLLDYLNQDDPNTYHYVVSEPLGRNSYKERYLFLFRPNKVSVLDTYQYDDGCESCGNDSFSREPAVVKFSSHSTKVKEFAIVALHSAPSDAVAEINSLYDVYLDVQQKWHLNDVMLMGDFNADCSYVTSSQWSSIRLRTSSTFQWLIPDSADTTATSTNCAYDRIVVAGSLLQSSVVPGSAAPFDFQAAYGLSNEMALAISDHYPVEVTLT

Work on “DNase1 (from UniProt P00639 23-282) (enzyme)” yielded a disappearance of Mg-F-actin bundles (bundled by 9 µM LL-37) and depolymerization of the filaments after 6 µM DNase1 (low and high speed sedimentation) of 100%.
